Results published in paper PMC7363131.

Target: S. venezuelae WhiD (SvWhiD), N-terminally His6-tagged, full length (S. venezuelae)
Assay: native MS; nondenaturing ESI-MS, 250 mM ammonium acetate, pH 7.2; SvWhiD alone (10 μM) or a 2:1 mixture of σ^HrdB4 and SvWhiD

stoichiometry N: 2
Substance: S. venezuelae WhiD (SvWhiD), N-terminally His6-tagged, full length (natural protein)
